Data reported in patent publication US20220306759A1 (CYTOMX THERAPEUTICS, published 2022).

B1: anti-human CD71 TF02.13-3013 activatable antibody (antibody, human IgG1)
heavy: not shown
VL: QGQSGQGNLCTEHSAALDCRSYGGGSSGGSAVGLLAPPGGLSGRSANIGGSDIQMTQSPSSLSASVGDRVTITCSASSSVYYMYWFQQKPGKAPKLWIYSTSNLASGVPSRFSGSGSGTDYTLTISSMQPEDFATYYCQQRRNYPYTFGQGTKLEIK
notes: without spacer 851
B2: anti-human CD71 TF02-2001 activatable antibody (antibody, human IgG1, kappa)
heavy: not shown
light: QGQSGQGNLCTEHSFALDCRSYGGGSSGGSISSGLLSGRSDNHGGGSDIQMTQSPSSLSASVGDRVTITCSASSSVYYMYWFQQKPGKAPKLWIYSTSNLASGVPSRFSGSGSGTDYTLTISSMQPEDFATYYCQQRRNYPYTFGQGTKLEIKRTVAAPSVFIFPPSDEQLKSGTASVVCLLNNFYPREAKVQWKVDNALQSGNSQESVTEQDSKDSTYSLSSTLTLSKADYEKHKVYACEVTHQGLSSPVTKSFNRGEC
B3: anti-human CD71 TF02.13-2007 activatable antibody (antibody, human IgG1, kappa)
heavy: not shown
light: QGQSGQGNLCTEHSAALDCRSYGGGSSGGSISSGLLSGRSDIHGGGSDIQMTQSPSSLSASVGDRVTITCSASSSVYYMYWFQQKPGKAPKLWIYSTSNLASGVPSRFSGSGSGTDYTLTISSMQPEDFATYYCQQRRNYPYTFGQGTKLEIKRTVAAPSVFIFPPSDEQLKSGTASVVCLLNNFYPREAKVQWKVDNALQSGNSQESVTEQDSKDSTYSLSSTLTLSKADYEKHKVYACEVTHQGLSSPVTKSFNRGEC
B4: anti-human CD71 TF02.13-2008 activatable antibody (antibody, human IgG1, kappa)
heavy: not shown
light: QGQSGQGNLCTEHSAALDCRSYGGGSSGGSISSGLLSGRSDQHGGGSDIQMTQSPSSLSASVGDRVTITCSASSSVYYMYWFQQKPGKAPKLWIYSTSNLASGVPSRFSGSGSGTDYTLTISSMQPEDFATYYCQQRRNYPYTFGQGTKLEIKRTVAAPSVFIFPPSDEQLKSGTASVVCLLNNFYPREAKVQWKVDNALQSGNSQESVTEQDSKDSTYSLSSTLTLSKADYEKHKVYACEVTHQGLSSPVTKSFNRGEC
B5: anti-human CD71 TF02.13-2011 activatable antibody (antibody, human IgG1, kappa)
heavy: not shown
light: QGQSGQGNLCTEHSAALDCRSYGGGSSGGSISSGLLSGRSDNPGGGSDIQMTQSPSSLSASVGDRVTITCSASSSVYYMYWFQQKPGKAPKLWIYSTSNLASGVPSRFSGSGSGTDYTLTISSMQPEDFATYYCQQRRNYPYTFGQGTKLEIKRTVAAPSVFIFPPSDEQLKSGTASVVCLLNNFYPREAKVQWKVDNALQSGNSQESVTEQDSKDSTYSLSSTLTLSKADYEKHKVYACEVTHQGLSSPVTKSFNRGEC
B6: anti-human CD71 TF02.13-2012 activatable antibody (antibody, human IgG1, kappa)
heavy: not shown
light: QGQSGQGNLCTEHSAALDCRSYGGGSSGGSISSGLLSGRSANPGGGSDIQMTQSPSSLSASVGDRVTITCSASSSVYYMYWFQQKPGKAPKLWIYSTSNLASGVPSRFSGSGSGTDYTLTISSMQPEDFATYYCQQRRNYPYTFGQGTKLEIKRTVAAPSVFIFPPSDEQLKSGTASVVCLLNNFYPREAKVQWKVDNALQSGNSQESVTEQDSKDSTYSLSSTLTLSKADYEKHKVYACEVTHQGLSSPVTKSFNRGEC
B7: anti-human CD71 TF02.13-2013 activatable antibody (antibody, human IgG1, kappa)
heavy: not shown
light: QGQSGQGNLCTEHSAALDCRSYGGGSSGGSISSGLLSGRSANIGGGSDIQMTQSPSSLSASVGDRVTITCSASSSVYYMYWFQQKPGKAPKLWIYSTSNLASGVPSRFSGSGSGTDYTLTISSMQPEDFATYYCQQRRNYPYTFGQGTKLEIKRTVAAPSVFIFPPSDEQLKSGTASVVCLLNNFYPREAKVQWKVDNALQSGNSQESVTEQDSKDSTYSLSSTLTLSKADYEKHKVYACEVTHQGLSSPVTKSFNRGEC
B8: anti-human CD71 TF02.13-3007 activatable antibody (antibody, human IgG1, kappa)
heavy: not shown
light: QGQSGQGNLCTEHSAALDCRSYGGGSSGGSAVGLLAPPGGLSGRSDIHGGSDIQMTQSPSSLSASVGDRVTITCSASSSVYYMYWFQQKPGKAPKLWIYSTSNLASGVPSRFSGSGSGTDYTLTISSMQPEDFATYYCQQRRNYPYTFGQGTKLEIKRTVAAPSVFIFPPSDEQLKSGTASVVCLLNNFYPREAKVQWKVDNALQSGNSQESVTEQDSKDSTYSLSSTLTLSKADYEKHKVYACEVTHQGLSSPVTKSFNRGEC
B9: anti-human CD71 TF02.13-3008 activatable antibody (antibody, human IgG1, kappa)
heavy: not shown
light: QGQSGQGNLCTEHSAALDCRSYGGGSSGGSAVGLLAPPGGLSGRSDQHGGSDIQMTQSPSSLSASVGDRVTITCSASSSVYYMYWFQQKPGKAPKLWIYSTSNLASGVPSRFSGSGSGTDYTLTISSMQPEDFATYYCQQRRNYPYTFGQGTKLEIKRTVAAPSVFIFPPSDEQLKSGTASVVCLLNNFYPREAKVQWKVDNALQSGNSQESVTEQDSKDSTYSLSSTLTLSKADYEKHKVYACEVTHQGLSSPVTKSFNRGEC
B10: anti-human CD71 TF02.13-3011 activatable antibody (antibody, human IgG1, kappa)
heavy: not shown
light: QGQSGQGNLCTEHSAALDCRSYGGGSSGGSAVGLLAPPGGLSGRSDNPGGSDIQMTQSPSSLSASVGDRVTITCSASSSVYYMYWFQQKPGKAPKLWIYSTSNLASGVPSRFSGSGSGTDYTLTISSMQPEDFATYYCQQRRNYPYTFGQGTKLEIKRTVAAPSVFIFPPSDEQLKSGTASVVCLLNNFYPREAKVQWKVDNALQSGNSQESVTEQDSKDSTYSLSSTLTLSKADYEKHKVYACEVTHQGLSSPVTKSFNRGEC
B11: CD71 Ab21.12-PEG2-vc-MMAD (antibody, human IgG1, kappa)
heavy: not shown
light: DIQMTQSPSSLSASVGDRVTITCSASSSVYYMYWFQQKPGKAPKLWIYSTSNLASGVPSRFSGSGSGTDYTLTISSMQPEDFATYYCQQRRNYPYTFGQGTKLEIKRTVAAPSVFIFPPSDEQLKSGTASVVCLLNNFYPREAKVQWKVDNALQSGNSQESVTEQDSKDSTYSLSSTLTLSKADYEKHKVYACEVTHQGLSSPVTKSFNRGEC
modifications: PEG2-vc-MMAD conjugated to the antibody; chain and residues not stated
notes: antibody drug conjugate of Ab21.12
B12: CD71 Ab 21.12-vc-MMAE (antibody, human IgG1, kappa)
heavy: not shown
light: DIQMTQSPSSLSASVGDRVTITCSASSSVYYMYWFQQKPGKAPKLWIYSTSNLASGVPSRFSGSGSGTDYTLTISSMQPEDFATYYCQQRRNYPYTFGQGTKLEIKRTVAAPSVFIFPPSDEQLKSGTASVVCLLNNFYPREAKVQWKVDNALQSGNSQESVTEQDSKDSTYSLSSTLTLSKADYEKHKVYACEVTHQGLSSPVTKSFNRGEC
modifications: vc-MMAE conjugated to the antibody; chain and residues not stated
notes: as for B11
B13: CD71 Ab 21.12-spdb-DM4 (antibody, human IgG1, kappa)
heavy: not shown
light: DIQMTQSPSSLSASVGDRVTITCSASSSVYYMYWFQQKPGKAPKLWIYSTSNLASGVPSRFSGSGSGTDYTLTISSMQPEDFATYYCQQRRNYPYTFGQGTKLEIKRTVAAPSVFIFPPSDEQLKSGTASVVCLLNNFYPREAKVQWKVDNALQSGNSQESVTEQDSKDSTYSLSSTLTLSKADYEKHKVYACEVTHQGLSSPVTKSFNRGEC
modifications: spdb-DM4 conjugated to the antibody; chain and residues not stated
notes: as for B11
B14: CD71 TF02.13-2001-spdb-DM4 (antibody, human IgG1, kappa)
heavy: not shown
light: QGQSGQGNLCTEHSAALDCRSYGGGSSGGSISSGLLSGRSDNHGGGSDIQMTQSPSSLSASVGDRVTITCSASSSVYYMYWFQQKPGKAPKLWIYSTSNLASGVPSRFSGSGSGTDYTLTISSMQPEDFATYYCQQRRNYPYTFGQGTKLEIKRTVAAPSVFIFPPSDEQLKSGTASVVCLLNNFYPREAKVQWKVDNALQSGNSQESVTEQDSKDSTYSLSSTLTLSKADYEKHKVYACEVTHQGLSSPVTKSFNRGEC
modifications: spdb-DM4 conjugated to the antibody; chain and residues not stated
B15: CD71 TF02.13-3001-PEG2-vc-MMAD (antibody, human IgG1, kappa)
heavy: not shown
light: QGQSGQGNLCTEHSAALDCRSYGGGSSGGSAVGLLAPPGGLSGRSDNHGGSDIQMTQSPSSLSASVGDRVTITCSASSSVYYMYWFQQKPGKAPKLWIYSTSNLASGVPSRFSGSGSGTDYTLTISSMQPEDFATYYCQQRRNYPYTFGQGTKLEIKRTVAAPSVFIFPPSDEQLKSGTASVVCLLNNFYPREAKVQWKVDNALQSGNSQESVTEQDSKDSTYSLSSTLTLSKADYEKHKVYACEVTHQGLSSPVTKSFNRGEC
modifications: PEG2-vc-MMAD conjugated to the antibody; chain and residues not stated
B16: CD71 TF02.13-3001-vc-MMAE (antibody, human IgG1, kappa)
heavy: not shown
light: QGQSGQGNLCTEHSAALDCRSYGGGSSGGSAVGLLAPPGGLSGRSDNHGGSDIQMTQSPSSLSASVGDRVTITCSASSSVYYMYWFQQKPGKAPKLWIYSTSNLASGVPSRFSGSGSGTDYTLTISSMQPEDFATYYCQQRRNYPYTFGQGTKLEIKRTVAAPSVFIFPPSDEQLKSGTASVVCLLNNFYPREAKVQWKVDNALQSGNSQESVTEQDSKDSTYSLSSTLTLSKADYEKHKVYACEVTHQGLSSPVTKSFNRGEC
modifications: vc-MMAE conjugated to the antibody; chain and residues not stated
B17: CD71 TF02.13-3001-spdb-DM4 (antibody, human IgG1, kappa)
heavy: not shown
light: QGQSGQGNLCTEHSAALDCRSYGGGSSGGSAVGLLAPPGGLSGRSDNHGGSDIQMTQSPSSLSASVGDRVTITCSASSSVYYMYWFQQKPGKAPKLWIYSTSNLASGVPSRFSGSGSGTDYTLTISSMQPEDFATYYCQQRRNYPYTFGQGTKLEIKRTVAAPSVFIFPPSDEQLKSGTASVVCLLNNFYPREAKVQWKVDNALQSGNSQESVTEQDSKDSTYSLSSTLTLSKADYEKHKVYACEVTHQGLSSPVTKSFNRGEC
modifications: spdb-DM4 conjugated to the antibody; chain and residues not stated

Tests used:
[1] = biological target: T1, human CD71 (transferrin receptor protein 1, TfR1) on human cell lines (human, UniProt P02786 1-760); assay: FACS on H292 cells, uncleaved
T1 construct: whole, on cells; also called huCD71
T1 sequence (P02786 whole entry): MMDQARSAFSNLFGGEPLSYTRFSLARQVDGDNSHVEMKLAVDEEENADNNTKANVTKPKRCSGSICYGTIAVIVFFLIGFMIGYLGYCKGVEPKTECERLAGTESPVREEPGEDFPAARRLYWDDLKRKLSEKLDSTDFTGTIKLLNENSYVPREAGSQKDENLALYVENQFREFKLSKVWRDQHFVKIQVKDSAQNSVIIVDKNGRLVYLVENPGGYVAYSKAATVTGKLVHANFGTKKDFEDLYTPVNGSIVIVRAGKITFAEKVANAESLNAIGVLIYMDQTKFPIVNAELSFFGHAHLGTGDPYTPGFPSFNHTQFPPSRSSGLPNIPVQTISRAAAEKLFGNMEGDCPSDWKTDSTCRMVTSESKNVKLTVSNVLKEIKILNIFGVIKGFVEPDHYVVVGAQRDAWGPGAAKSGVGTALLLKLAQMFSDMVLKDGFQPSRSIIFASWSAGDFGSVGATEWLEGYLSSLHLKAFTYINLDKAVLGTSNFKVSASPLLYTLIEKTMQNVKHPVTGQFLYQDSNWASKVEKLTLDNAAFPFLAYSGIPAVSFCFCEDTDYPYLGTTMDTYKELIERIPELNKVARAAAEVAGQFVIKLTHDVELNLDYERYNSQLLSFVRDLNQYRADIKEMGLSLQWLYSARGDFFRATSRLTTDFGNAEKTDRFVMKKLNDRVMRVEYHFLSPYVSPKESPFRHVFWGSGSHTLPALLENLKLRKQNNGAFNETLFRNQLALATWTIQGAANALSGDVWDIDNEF
Experimental: In this study, the binding of the antibodies of the present disclosure to the indicated cell lines were performed using a standard FACS labelling method. […] These activatable antibodies include the light chain of the correspondingly named sequence listed above in Table C. The cells were labeled with the indicated test article at the indicated concentrations and subsequently detected with an Alexa Fluor 647 labeled goat anti-human IgG secondary antibody.

[2] = biological target: T2, recombinant human CD71 protein (human, UniProt P02786 89-760); assay: ELISA, 1 µg/mL recombinant human CD71, uncleaved
T2 construct: also called recombinant CD71
T2 sequence (P02786 89-760 limits assumed): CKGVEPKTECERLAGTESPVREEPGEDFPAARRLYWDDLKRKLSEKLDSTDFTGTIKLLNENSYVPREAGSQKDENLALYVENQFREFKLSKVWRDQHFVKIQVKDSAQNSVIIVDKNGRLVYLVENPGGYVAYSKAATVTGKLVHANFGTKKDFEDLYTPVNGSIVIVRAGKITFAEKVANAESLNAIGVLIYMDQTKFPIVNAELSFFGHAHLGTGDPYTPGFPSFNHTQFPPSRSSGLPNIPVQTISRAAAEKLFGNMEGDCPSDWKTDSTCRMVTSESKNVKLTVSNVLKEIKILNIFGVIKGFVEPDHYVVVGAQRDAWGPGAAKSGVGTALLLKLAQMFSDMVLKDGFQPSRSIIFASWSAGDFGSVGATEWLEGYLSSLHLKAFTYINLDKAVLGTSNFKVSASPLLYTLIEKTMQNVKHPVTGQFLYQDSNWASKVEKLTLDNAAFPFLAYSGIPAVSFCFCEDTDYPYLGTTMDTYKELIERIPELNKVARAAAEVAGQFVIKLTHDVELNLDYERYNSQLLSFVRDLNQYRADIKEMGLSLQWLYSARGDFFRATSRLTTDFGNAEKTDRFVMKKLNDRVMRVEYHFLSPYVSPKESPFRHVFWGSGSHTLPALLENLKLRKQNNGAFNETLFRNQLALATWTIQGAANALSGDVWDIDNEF
Experimental: (§1) The amount of bound antibody was detected by incubation and detection by goat anti-human antibody conjugated to horseradish peroxidase and Ultra TMB (Thermo Fisher Scientific) detection.

[3] = biological target: T2, recombinant human CD71 protein; assay: ELISA; Kd against CD71 21.12
Experimental: as §1

[4] = biological target: T2, recombinant human CD71 protein; assay: ELISA, 1 µg/mL CD71, uncleaved
Experimental: as §1

[5] = biological target: T1, human CD71 (transferrin receptor …); assay: FACS on MDA MB 231 cells
Experimental: (§2) In this study, the binding of the antibodies of the present disclosure to the indicated cell lines were performed using a standard FACS labelling method.

[6] = biological target: T1, human CD71 (transferrin receptor …); assay: FACS on H292 cells
Experimental: as §2

[7] = biological target: T1, human CD71 (transferrin receptor …); assay: FACS on HCC1806 cells
Experimental: as §2

| Binder | Kd [1] [nM] | Kd [2] [nM] | also measured |
| --- | --- | --- | --- |
| B1 | 78.3 | 4.91 | – |
| B2 | – | – | ME (masking efficiency) [3]: 153 fold; Kd [4]: 21.4 nM |
| B3 | 70.3 | – | – |
| B4 | 90 | 15.1 | – |
| B5 | 57.1 | 4.27 | – |
| B6 | 39.1 | 1.64 | – |
| B7 | 70.3 | 3.25 | – |
| B8 | 86.7 | 2.21 | – |
| B9 | 97.8 | 2.61 | – |
| B10 | 67.4 | 0.778 | – |
| B11 | – | – | Kd [5]: 1.47 nM |
| B12 | – | – | Bmax (MFI) [6]: 1600 MFI; Kd [6]: 1.33 nM; Kd [7]: 6.4 nM |
| B13 | – | – | Kd [5]: 1.24 nM |
| B14 | – | – | Kd [7]: ~200 nM |
| B15 | – | – | Kd [5]: 52.6 nM |
| B16 | – | – | Bmax (MFI) [6]: 1850 MFI; Kd [6]: 53.8 nM |
| B17 | – | – | Kd [5]: 46.9 nM; Kd [7]: ~200 nM |
